Source: patent US20050058639A1 (AstraZeneca / MedImmune, published 2005)
Residue numbers refer to the chain shown, from its start.

T1: human RANTES (human, UniProt P13501 24-91)
T1 construct: also called hRANTES
T1 sequence (looked up): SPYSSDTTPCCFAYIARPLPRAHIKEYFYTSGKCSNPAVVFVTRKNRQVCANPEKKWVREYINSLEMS

T2: recombinant human MCP-2 (human, UniProt P80075 24-99)
T2 construct: also called rhMCP-2
T2 sequence (looked up): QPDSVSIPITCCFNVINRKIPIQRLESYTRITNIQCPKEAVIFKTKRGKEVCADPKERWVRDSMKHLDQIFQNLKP

T3: human MIP-1-alpha (human, UniProt P10147 24-92, limits assumed)
T3 construct: also called hMIP-1-alpha
T3 sequence (looked up): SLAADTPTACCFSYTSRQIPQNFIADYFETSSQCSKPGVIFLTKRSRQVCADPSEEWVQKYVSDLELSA

T4: human GRO/MGSA (human, UniProt P09341 35-107)
T4 construct: also called hGRO/MGSA; GRO-alpha
T4 sequence (looked up): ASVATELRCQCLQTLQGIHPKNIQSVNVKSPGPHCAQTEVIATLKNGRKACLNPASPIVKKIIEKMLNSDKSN

B1: anti-MCP-1 mAb 1.1.1 (antibody, human IgG2, kappa, V domains shown)
VH: QVQLVQSGAEVKKPGASVKVSCKVSGYTLTELSMHWVRQAPGNGLEWMGGFDPEDGETIYAQRFQGRVVMTEDPSTDTAYMELSSLRSEDTAVYYCATNEFWSGYFDYWGQGTLVTVSS
VL: DIVMTQSPDSLAMSLGERATINCKSSQSVLYSSNNKNYLVWYQQKPGQPPKLLIYWASIRESGVPDRFSSSGSETDFTLTISSLQAEDVAVYYCQQYFSSPWTFGQGTKVEIKR
B2: anti-MCP-1 mAb 1.5.1 (antibody, V domains shown)
VH: B1 VH with N43K, G56D, R63K, V69T, P74T, Y95F, E100D, Y108C, G110D
VL: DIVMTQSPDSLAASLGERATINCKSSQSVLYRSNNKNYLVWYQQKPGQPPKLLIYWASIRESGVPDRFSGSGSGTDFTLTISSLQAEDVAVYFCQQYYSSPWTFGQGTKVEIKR
B3: anti-MCP-1 mAb 1.6.1 (antibody, V domains shown)
VH: QVQLVQSGAEVKKPGASVKVSCKVSGYTLTELSMHWVRQAPGKGLEWMGGFDPEDGETIYAQKFQGRVTMTEDTSTDTAYMELSSLRSEDTAVYYCATWYSGIYLAFDIWGQGTMVTVSS
VL: EIVLTQSPDFQSVTPKEKVTITCRASQSIGSSLHWYQQKPDQSPKLLIKYASQSFSGVPSRFSGSGSGTDFTLTINSLEAEDAATYYCHQSSSLPHTFGGGTKVEIKR
B4: anti-MCP-1 mAb 1.8.1 (antibody, V domains shown)
VH: B1 VH with Y27H, T28I, L29F, M34I, N43K, R63K, V69T, P74T, A79V, E100D
VL: DIVMTQSPGSLAVSLGERATINCKSSQSILFRSNNKNYLTWYQQKPGQPPKLLIYWASIRESGVPDRFSGSGSGSNFTLTITSLQAEDVAIYYCQQYYSSPWTFGQGTKVEIKR
B5: anti-MCP-1 mAb 1.10.1 (antibody, V domains shown)
VH: B1 VH with N43K, R63K, V69T, P74T
VL: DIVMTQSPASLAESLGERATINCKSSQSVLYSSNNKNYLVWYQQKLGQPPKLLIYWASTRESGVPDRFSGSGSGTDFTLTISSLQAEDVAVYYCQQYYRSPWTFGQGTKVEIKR
B6: anti-MCP-1 mAb 1.11.1 (antibody, V domains shown)
VH: B1 VH with L4V, K13N, Y27S, N43K, R63K, V69T, P74T, A79V, E100D
VL: B1 VL with M13V, N22T, S28T, P46S, Y55H, S70G, E74G, F98Y
B7: anti-MCP-1 mAb 1.12.1 (antibody, V domains shown)
VH: B1 VH with N43K, R63K, V69T, P74T, E100D, F106Y, D107N
VL: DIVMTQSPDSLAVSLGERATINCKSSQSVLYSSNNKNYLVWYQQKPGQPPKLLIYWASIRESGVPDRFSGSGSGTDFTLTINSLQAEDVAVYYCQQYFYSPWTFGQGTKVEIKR
B8: anti-MCP-1 mAb 1.13.1 (antibody, V domains shown)
VH: B1 VH with Y27H, N43K, G56D, R63K, G66D, V69T, P74T, E100D, Y108C
VL: B1 VL with M4L, M13V, S14C, S33P, Y38F, K45R, I59T, S70G, E74G, F98Y
B9: anti-MCP-1 mAb 1.14.1 (antibody, V domains shown)
VH: QVQAEQSGPGLVKPSQTLSLTCAISGDSVSSYSAAWNWIRQSPSRGLEWLGRTYYRSKWYSDHAVSVRSRITIYPDTSKNQFSLQLNSVTPEDTAVYYCARDRISGTYVGMDVWGQGTTVTVSS
VL: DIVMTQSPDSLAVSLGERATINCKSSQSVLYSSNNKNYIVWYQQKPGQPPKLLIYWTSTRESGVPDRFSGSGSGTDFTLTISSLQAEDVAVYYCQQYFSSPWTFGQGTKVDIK
B10: anti-MCP-1 mAb 3.2 (antibody, V domains shown)
VH: QVQLVQSGAEVKKPGASVKVSCKVSGYTLSELSMHWVRQAPGKGLEWMGGFDPEDGEIIHAQKFQGRVTMTEDTSTDTAYMELSSLRSEDTAVYYCATGDFWSGYYLDWWGQGTLVTVSS
VL: EIVMMQSPATLSVSPGERATLSCRASQSVNSNLAWYQQKPGQAPRLLINGASTRATGIPARFSGSGSGTEFTLTISSLQSEDFAIYYCQQYNDWPTFTFGGGTKVEINR
notes: also called 3.2 (neat)

Molecular target: T5, recombinant human MCP-4 (human, UniProt Q99616 24-98, limits assumed)
T5 construct: also called rhMCP-4
T5 sequence (Q99616 24-98 limits assumed): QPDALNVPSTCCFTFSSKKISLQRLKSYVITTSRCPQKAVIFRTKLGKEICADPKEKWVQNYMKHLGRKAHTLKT
Test: ELISA, coated antigen
Experimental: (§1) Determining cross-reactivity of anti-MCP-1 antibodies with other chemokines. ELISA plates (Fisher Cat. No. 12-565-136) were coated with 50 μl/well of MCP-1, MCP-2, MCP-3, MCP-4, RANTES, GRO-alpha, MIP-1 alpha, eotaxin, rat MCP-1 and mouse JE (2 μg/ml) in coating buffer (0.1 M carbonate buffer, pH 9.6, NaHCO₃ 8.4 g/L, then incubated at 4° C. overnight. After incubation, the plates were washed with washing buffer (0.05% Tween 20 in PBS) three times. 200 μL/well blocking buffer (0.5% BSA, 0.1% Tween 20, 0.01% Thimerosal in 1×PBS) were added and the plates incubated at room temperature for 1 hour. After incubation, the plates were washed with washing buffer three times. 50 μL/well of hybridoma supernatants, and positive and negative controls (positive control was anti-MCP-1 antibody purchased from R&D Sciences, and negative control was an antibody to Keyhole Limpet Hemocyanin produced at Abgenix) were added and the plates incubated at room temperature for 2 hours. After incubation, the plates were washed three times with washing buffer. […] After incubation, the plates were washed three times with washing buffer and 100 μL/well of TMB (BioFX Lab. Cat. #TMSK-0 100-01) was added and the plates allowed to develop for about 10 minutes.

Binder | ELISA OD
B1 | 0.052 OD450
B2 | 0.05 OD450
B3 | 0.044 OD450
B4 | 0.046 OD450
B5 | 0.052 OD450
B6 | 0.043 OD450
B7 | 0.044 OD450
B8 | 0.045 OD450
B9 | 0.044 OD450
B10 | 0.041 OD450

Molecular target: T1, human RANTES
Test: ELISA, coated antigen
Experimental: as §1

Binder | ELISA OD
B1 | 0.044 OD450
B2 | 0.049 OD450
B3 | 0.046 OD450
B4 | 0.045 OD450
B5 | 0.042 OD450
B6 | 0.042 OD450
B7 | 0.046 OD450
B8 | 0.046 OD450
B9 | 0.046 OD450
B10 | 0.043 OD450

Molecular target: T6, human eotaxin (human, UniProt P51671 24-97)
T6 construct: also called hEotaxin
T6 sequence (P51671 24-97 limits assumed): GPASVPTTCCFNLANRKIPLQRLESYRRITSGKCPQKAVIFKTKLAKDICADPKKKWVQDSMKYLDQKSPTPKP
Test: ELISA, coated antigen
Experimental: as §1

Binder | ELISA OD
B1 | 0.042 OD450
B2 | 0.043 OD450
B3 | 0.042 OD450
B4 | 0.047 OD450
B5 | 0.05 OD450
B6 | 0.049 OD450
B7 | 0.044 OD450
B8 | 0.044 OD450
B9 | 0.042 OD450
B10 | 0.194 OD450

Molecular target: T7, recombinant mouse JE/MCP-1 (mouse, UniProt P10148 24-148)
T7 construct: also called rmJE/MCP-1
T7 sequence (P10148 24-148 limits assumed): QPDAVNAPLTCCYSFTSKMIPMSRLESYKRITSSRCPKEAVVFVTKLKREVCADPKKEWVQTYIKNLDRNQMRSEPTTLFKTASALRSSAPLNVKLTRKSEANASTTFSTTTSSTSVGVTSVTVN
Test: ELISA, coated antigen
Experimental: as §1

Binder | ELISA OD
B1 | 0.045 OD450
B2 | 0.043 OD450
B3 | 0.042 OD450
B4 | 0.045 OD450
B5 | 0.041 OD450
B6 | 0.041 OD450
B7 | 0.042 OD450
B8 | 0.043 OD450
B9 | 0.042 OD450
B10 | 0.059 OD450

Molecular target: T8, human monocyte chemo-attractant protein-1 (MCP-1) (human, UniProt P13500 24-99)
T8 construct: 76-residue recombinant protein from E. coli, bought (PeproTech); also called hMCP-1(MCAF); human MCP-1
T8 sequence (P13500 24-99): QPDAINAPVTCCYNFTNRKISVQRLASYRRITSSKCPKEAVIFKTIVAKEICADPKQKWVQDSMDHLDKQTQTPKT
Test: ELISA, coated antigen
Experimental: as §1

Binder | ELISA OD
B1 | 0.944 OD450
B2 | 1.18 OD450
B3 | 0.375 OD450
B4 | 1.16 OD450
B5 | 1.26 OD450
B6 | 1.34 OD450
B7 | 0.933 OD450
B8 | 1.16 OD450
B9 | 1.13 OD450
B10 | 0.235 OD450

Molecular target: T9, recombinant human MCP-3 (human, UniProt P80098 24-99)
T9 construct: also called rhMCP-3
T9 sequence (P80098 24-99 limits assumed): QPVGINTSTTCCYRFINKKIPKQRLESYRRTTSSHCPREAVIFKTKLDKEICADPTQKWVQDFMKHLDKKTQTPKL
Test: ELISA, coated antigen
Experimental: as §1

Binder | ELISA OD
B1 | 0.064 OD450
B2 | 0.069 OD450
B3 | 0.046 OD450
B4 | 0.054 OD450
B5 | 0.047 OD450
B6 | 0.043 OD450
B7 | 0.046 OD450
B8 | 0.047 OD450
B9 | 0.046 OD450
B10 | 0.449 OD450

Molecular target: T2, recombinant human MCP-2
Test: ELISA, coated antigen
Experimental: as §1

Binder | ELISA OD
B1 | 0.051 OD450
B2 | 0.047 OD450
B3 | 0.042 OD450
B4 | 0.048 OD450
B5 | 0.04 OD450
B6 | 0.041 OD450
B7 | 0.042 OD450
B8 | 0.046 OD450
B9 | 0.042 OD450
B10 | 0.535 OD450

Molecular target: T3, human MIP-1-alpha
Test: ELISA, coated antigen
Experimental: as §1

Binder | ELISA OD
B1 | 0.044 OD450
B2 | 0.041 OD450
B3 | 0.046 OD450
B4 | 0.045 OD450
B5 | 0.043 OD450
B6 | 0.042 OD450
B7 | 0.046 OD450
B8 | 0.042 OD450
B9 | 0.046 OD450
B10 | 0.041 OD450

Molecular target: rat MCP-1 (rat, UniProt P14844 24-148)
Sequence (P14844 24-148 limits assumed): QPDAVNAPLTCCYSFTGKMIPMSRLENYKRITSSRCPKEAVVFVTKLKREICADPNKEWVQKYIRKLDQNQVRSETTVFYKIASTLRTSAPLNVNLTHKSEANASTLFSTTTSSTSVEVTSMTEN
Test: ELISA, coated antigen
Experimental: as §1

Binder | ELISA OD
B1 | 0.051 OD450
B2 | 0.045 OD450
B3 | 0.062 OD450
B4 | 0.049 OD450
B5 | 0.059 OD450
B6 | 0.052 OD450
B7 | 0.062 OD450
B8 | 0.06 OD450
B9 | 0.062 OD450
B10 | 0.07 OD450

Molecular target: T4, human GRO/MGSA
Test: ELISA, coated antigen
Experimental: as §1

Binder | ELISA OD
B1 | 0.047 OD450
B2 | 0.048 OD450
B3 | 0.046 OD450
B4 | 0.06 OD450
B5 | 0.043 OD450
B6 | 0.042 OD450
B7 | 0.046 OD450
B8 | 0.046 OD450
B9 | 0.046 OD450
B10 | 0.042 OD450

Molecular target: T8, human monocyte chemo-attractant …
Test: cell-based or functional assay

Binder | IC50 Ca++ Flux | IC50 Chemotaxis
B1 | 0.24 µg/mL | 0.27 µg/mL
B2 | 0.21 µg/mL | 0.34 µg/mL
B3 | 1 µg/mL | 12 µg/mL
B4 | 0.26 µg/mL | 0.88 µg/mL
B5 | 0.18 µg/mL | 1.2 µg/mL
B6 | 0.098 µg/mL | 0.81 µg/mL
B7 | 0.13 µg/mL | 0.35 µg/mL
B8 | 0.11 µg/mL | 0.5 µg/mL
B9 | 0.41 µg/mL | 0.58 µg/mL

Molecular target: T8, human monocyte chemo-attractant …
Test: ELISA, hybridoma supernatant on coated MCP-1
Experimental: Selection of candidate antibodies for ELISA. After 14 days of culture, hybridoma supernatants were screened for MCP-1-specific monoclonal antibodies. The ELISA plates (Fisher, Cat. No. 12-565-136) were coated with 50 μl/well of MCP-1 (2 μg/mL) in Coating Buffer (0.1 M Carbonate Buffer, pH 9.6, NaHCO₃8.4 g/L), then incubated at 4° C. overnight. After incubation, the plates were washed with Washing Buffer (0.05% Tween 20 in PBS) three times. 200 μl/well Blocking Buffer (0.5% BSA, 0.1% Tween 20, 0.01% Thimerosal in 1× PBS) were added and the plates incubated at room temperature for 1 hour. After incubation, the plates were washed with Washing Buffer three times. 50 μL/well of hybridoma supernatants, and positive and negative controls were added and the plates incubated at room temperature for 2 hours.
The positive control used throughout was XMG2 MCP-1 Group 1, footpad N160-7 and the negative control was XMG2 KLH Group 1, footpad L627-6. After incubation, the plates were washed three times with Washing Buffer. […] In the secondary screen, three sets of samples (positives in first screening) were screened, one set for hIgG detection, one set for hKappa detection, and one set for hlambda detection. After incubation, the plates were washed three times with Washing Buffer. 100 μL/well of TMB (BioFX Lab. Cat. #TMSK-0100-01) were added and the plates allowed to develop for about 10 minutes (until negative control wells barely started to show color), then 50 μL/well stop solution (TMB Stop Solution (BioFX Lab. Cat. #STPR-0100-01) were added and the plates read on an ELISA plate reader at wavelength 450 nm. The OD readings from the positive wells are presented in Table 9.

Binder | ELISA OD-MCP-1
B1 | 3.64 OD450
B2 | 0.51 OD450
B3 | 3.92 OD450
B4 | 3.47 OD450
B5 | 3.85 OD450
B6 | 3.9 OD450
B7 | 4 OD450
B8 | 4 OD450
B9 | 2.06 OD450
B10 | 3.96 OD450
